{
  "source": "patent US12359240B2",
  "about": "“Membrane protease-based methods for detection of bacteria” (Nanyang Technological University, priority 2019, dated 2025)",
  "key": {"[1]": {"test_system": "OmpT and PgtE", "test": "Substrate preference of OmpT versus PgtE, change in PT6 fluorescence with time", "assay_type": "biochemical, E. coli K-12; Salmonella typhi", "conditions": "FIG. 15"}, "[2]": {"test_system": "E. coli K12", "test": "Detection of E. coli in contaminated water with the LL37 peptides and PT6", "assay_type": "cell-based, Escherichia coli", "conditions": "10^8 CFU/mL E. coli K12, FIG. 14A"}, "[3]": {"target": "T1, OmpT (Escherichia coli, UniProt P09169)", "T1 sequence (P09169 21-317)": "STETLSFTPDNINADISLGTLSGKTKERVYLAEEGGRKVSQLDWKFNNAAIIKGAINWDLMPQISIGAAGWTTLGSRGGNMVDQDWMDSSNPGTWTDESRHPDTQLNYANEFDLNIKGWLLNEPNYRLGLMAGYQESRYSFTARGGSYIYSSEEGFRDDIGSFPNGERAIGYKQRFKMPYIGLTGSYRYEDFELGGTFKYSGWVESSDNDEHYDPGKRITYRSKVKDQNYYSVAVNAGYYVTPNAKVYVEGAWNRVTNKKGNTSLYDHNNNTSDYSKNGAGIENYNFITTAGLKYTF", "conditions": "for rate of reduction in PT6 fluorescence (cleavage by OmpT) relative to the peptide of Examples 1-5: interpreted from the slope"}, "[4]": {"target": "T1, OmpT", "procedure": "This OmpT was obtained by overexpressing the protein in E. coli BL21 as inclusion bodies using a protocol reported earlier [Kramer, R. A. Zandwijken, D. Egmond, M. R. Dekker, N. Eur. J. Biochem. 267, 885-893 (2000)]. Briefly, the inclusion bodies were unfolded and solubilized using 8 M urea and subsequently refolded in the presence of DodMe2NPrSO3, a zwitterionic detergent. The refolded OmpT was purified and stored at 4° C. for further use. […] To this 100 μL reaction mixture, 10 μL of PTAA stock solution (0.1 mg/mL) was added. Fluorescence measurements and absorbance scans were collected as mentioned before. The raw fluorescence (F.) intensity scans are either plotted as is or reported as % fluorescence increase. The following formula was applied to convert fluorescence intensity (a.u.) to % fluorescence increase: […]"}, "[5]": {"target": "T1, OmpT", "remark": "listed apart in the source"}, "[6]": {"test": "PTAA-peptide fluorescence and optical absorption measurements (no enzyme)", "conditions": "550 nm; peptide's highest concentration", "procedure": "All PTAA and LL37FRRY mixing were carried out in the reaction buffer. All optical absorption and fluorescence measurements were carried out on 100 μL samples in a flat bottom 96 well plate using a TECAN Infinite® 200 PRO(Switzerland). Optical absorption measurements were collected from 330-650 nm. […] To understand the effect of intact and cleaved fragments on the fluorescence intensity and optical absorption of PTAA, LL37FRRV, frag1LL37FRRV (SEQ ID NO: 47) and frag2LL37FRRV (SEQ ID NO: 48) were added in different ratios (10:0, 8:2, 6:4, 4:6, 2:8, 0:10) while keeping the total peptide concentration at 50 μM. The fluorescence intensity and optical absorption spectra were measured as mentioned before."}, "[7]": {"test": "PT6-peptide fluorescence measurements (no enzyme)", "conditions": "FIG. 18", "procedure": "Stock solutions of PT6 was prepared in a reaction buffer such that the absorbance at λmax was ˜1.4. All absorbance and fluorescence measurements were carried out on 100 μL samples in a flat bottom 96 well plate using a TECAN Infinite® 200 PRO (Switzerland). Fluorescence scans were collected by exciting the samples at 495 nm, further recording their emission spectrum from 525-750 nm. […] In order to study the effect of cysteine on PT6 fluorescence, different concentrations (150-6.25 μM) of the two peptides (Table 12) were prepared from the stock and mixed with PT6 such that the final concentration of the PT is a 10 time dilution of the stock. The fluorescence intensities were measured as described above."}, "[8]": {"target": "T1, OmpT", "conditions": "20 μM peptide, OmpT 6 hours, FIG. 17"}},
  "note": "Where no end group is shown, it is not given here.",
  "data": [
    {"substance": "C L L G D F A R R A K E K I G (CLLGDFARRAKEKIG; LL37ARRA)", "values": [
      {"measurement": "substrate preference of OmpT compared with PgtE", "setting": "[1]", "value": "OmpT exhibits a higher preference"}
    ]},
    {"substance": "C L L G D F F R R A K E K I G (CLLGDFFRRAKEKIG; LL37FRRA)", "values": [
      {"measurement": "rate of reduction in PT6 fluorescence", "setting": "[2]", "value": "faster rate"},
      {"measurement": "rate of reduction in PT6 fluorescence (cleavage by OmpT) relative to the peptide of Examples 1-5", "setting": "[3]", "value": "faster rate"}
    ]},
    {"substance": "C L L G D F F R R V K E K I G (CLLGDFFRRVKEKIG; LL37FRRV)", "values": [
      {"measurement": "increase in PTAA fluorescence intensity when mixed with OmpT-cleaved peptide fragments", "setting": "[4]; peptide treated with OmpT in detergent micelles", "value": "no more than 20%"},
      {"measurement": "times better then original peptide (substrate specific for OmpT)", "setting": "[5]; SAMDI-MS peptide array, versus original peptide", "value": 400, "unit": "times"}
    ]},
    {"substance": "C L L G D F F R R Y K E K I G (CLLGDFFRRYKEKIG; LL37FRRY)", "values": [
      {"measurement": "overall increase in PTAA's fluorescence intensity upon peptide addition", "setting": "[6]", "value": "~200", "unit": "%"},
      {"measurement": "rate of reduction in PT6 fluorescence", "setting": "[2]", "value": "faster rate"},
      {"measurement": "PTAA's fluorescence intensity less than with peptide in the absence of OmpT", "setting": "[4]; 42 nM OmpT, 2 hours, 50 μM peptide", "value": "~175", "unit": "%"},
      {"measurement": "PT6 fluorescence intensity, peptide with versus without terminal cysteine", "setting": "[7]", "value": "much higher fluorescence intensity"},
      {"measurement": "difference in PTAA fluorescence intensity between intact peptide and peptide digested with OmpT", "setting": "[8]", "value": "largest difference"},
      {"measurement": "incubation time with OmpT of the sample showing colour change from bronze to purple", "setting": "[3]; PT6, normal visible light, FIG. 13B top", "value": 70, "unit": "min"},
      {"measurement": "rate of reduction in PT6 fluorescence (cleavage by OmpT) relative to the peptide of Examples 1-5", "setting": "[3]", "value": "faster rate"}
    ]},
    {"substance": "C L L G D F Y R R A K E K I G (CLLGDFYRRAKEKIG; LL37YRRA)", "values": [
      {"measurement": "rate of reduction in PT6 fluorescence", "setting": "[2]", "value": "faster rate"},
      {"measurement": "rate of reduction in PT6 fluorescence (cleavage by OmpT) relative to the peptide of Examples 1-5", "setting": "[3]", "value": "faster rate"}
    ]},
    {"substance": "FRRV: library peptide of type AcGX1RRX2GC carrying the tetrapeptide sequence FRRV at the cleavage site (Ac-GFRRVGC)", "values": [
      {"measurement": "cleavage by OmpT of library peptide AcGX1RRX2GC", "setting": "[5]; tetrapeptide sequence at the cleavage site", "value": "efficiently cleaved"}
    ]}
  ]
}
